# Experimental data as given in the supplement of paper PMC12636428.
# Tested on: Saccharomyces cerevisiae
# Test: transcriptional activation domain activity (GFP:mCherry ratio, weighted mean of sorted bins, harmonized to initial dataset scale) (arbitrary fluorescence ratio units); higher = stronger transcriptional activation
# Conditions: beta-estradiol 1 µM; induction time 4 h
# Procedure, shortened: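 Values are activation activity, found as the read-weighted mean of bin median fluorescence, averaged across barcodes and then mapped linearly onto the initial dataset scale. Barcoded protein tiles fused to an estradiol-inducible synthetic transcription factor were integrated at the URA3 locus of GFP-reporter yeast diploids. Cells were induced for 4 hours at 30 °C with 1 uM beta-estradiol in SC, sorted into 8 bins by GFP:mCherry ratio, and barcode-sequenced, with tiles under 50 reads discarded.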
row,Sequence,transcriptional activation domain activity
1,TPSTCLSFLPFFPLLLPLFFSFPLSLIFFLCNFSFQFFFSSCFLSFYLFVVSF,66100
2,TPTAQYQQGYHFRHLRYVMCLSVAVLIVGAVSLTIPLPISARIASILRFWEHD,44200
3,TPVYIGPLDGGAGDAQHGRKGGESRFQITPRKTVRLGEDGKGRKVSVEQRIVC,49400
4,TPYWVLWNLRSSYGPVWQFLLKWIPFNMLLHRYYHCVKMELGYLFIFGNDFLR,56300
5,TQAGPSTGGGVFGQPSQPSTSTNAFGGGNGLFGSKPTTGFGTATTPAAGVPAP,53600
6,TQATIVGDFFVCLMDVAGHDLAILLINWRAQTGTWLIFDSLEPLMWPHRITLV,40300
7,TQLIELNVPMGKVGMVVDNSSDKLEIEDIVVYWSLRSRPVWLVYVRAFLKSII,56200
8,TQPIDIAASNQQNGEIAQLWDFNVDQFNMTPSNSSGSATISAPNSFTSDIPQY,57300
9,TQQLEFWLPWQWIQANVFFPCVSYIYFRDWREMMEILLSYRSIEMDGLAFCLV,69300
10,TRCLLMYMYFLQDIGIYIYCILILNLFRKVRRLIPFPSRVLMVLHVITICIFT,74300
11,TRDDEEGGEEEEEEEEEEEEDEEDEDPESLPHIHKALEIHYQIHLSPTYSVPV,52700
12,TREMREKVEREREGRRRAREEKEKRGGGGGGGKGKKGRGGKGKGKAVPGAGAG,49400
13,TRGAPPAPPPPPPPPARPSESGAPPPPPPPPARGAPPPPPPPPPPAGGAPPPP,36500
14,TRHARALEVIKFTKRILSVGGMKYRERMFWWCPIDSATVRAWMLWVLGSIPLV,62900
15,TRHLHFTRYHIFTNSKCILLAVGKLLYCACALGWYGLIVGFVVTVLMLCQDSL,22600
16,TRKLVFKWPYVPYLLGRYTMICCLLFVWVLLVNPIDCVHNELFIALVACMAVC,22500
17,TRMLLHWFHCQDNVWYYYVAFFFAELLVYTVMIVSIGSILFQWRFFCRVAYKM,32000
18,TRNSCVKIEKEDSLTNLNEIDFTNMFCNDNFIQNYNQGLMELLTEPTPGPSSS,64700
19,TRPYEMALKFVNVTDTNELLRMRQFACDICDYAPHLLDNDNISLLIVLLILTR,45000
20,TRQYIINILFGIMTVENFDLEDIIYFYMFIARNLPKYPQHIMLPGTSLHQVLV,54100
21,TRSFNIMLGMVTFWGVFSLFAIAFQCGLPAPWVFIPSECPTGGYLYYPVIILN,56000

row,Sequence,transcriptional activation domain activity
1,TRSKKSAPRTSESSEDEEQRPSSRPSSRASRPASRASASRKRSDSTGTAGGGE,< 6570
2,TRTLFMVPQLCCAFSSMWLYQILVAVSIYLTNHVGIMMVRVWSYCVAVYVLEV,69800
3,TRTRKWWLRTVWACTWLIPSFLLSSVGRMKRPDVRLAWREKVTIFWLIFLFNG,68900
4,TRTVLFSRGACVILFPWLMYAVGLLLHMIIVNYRLYILYWLLVLKRPIGGFKF,57500
5,TRVMAEENGMTVDEKAFEEAQEAAKEASRKARGGKGGEEAVALDVHDLAALEK,36200
6,TRVQDEWVSITKLARQAKESAGKEKKGKGGRGVYSQNSKVWEGVVKLLVAIVA,46300
7,TRYCWGFINLWYSSLYLSGSIILNLAAFFLLPVHLFVSLMQTHLLQWELLLAF,59500
8,TSAAPAFGTSGFSAAKPATPAQASAFGSPAALGAKASPWGAQNSSSSGTTAGA,31100
9,TSAFGGGNTGGGLFGQQNKPTTGFGSSPAPAGGLFGGGSGTTTSTPAFGAAAA,37300
10,TSAFGNLGSSSSTPSVFGGAGAGTNNTGSGGGGGGGFSAFAGKPTAFGAGAAG,39400
11,TSAFGQTNNAASPFGGTSNTAAGGFGSPATGGFGTNTAGGAFGSKPAFGATTT,38300
12,TSAVLDLGDERDVADYDVISLAEDYVGRDNRKGQKRAMRLDESGPRMEIKVVK,45400
13,TSCFSFLVFSFIFLSLGIMMWSLGQELLWYFVFFCLVWIFLLVVCLFIIEYSE,32500
14,TSDTGKKRQIKEEAEEESEEEPPTKRQRRKPVEEKETPKKAAAKPKADKVPAK,40500
15,TSFVLYLKLNQVIAFSLRTIYSINKSKILLGFVGQQWEQHIVSELDSALNKWV,37900
16,TSIFGSNNNNTGSGMFGGNNNTNTGTPFGGGGGFGTNTNTNTAFGSKPFGSST,17500
17,TSIFGSNNNTGGTMFGSNTNTSSPFGGGGTSNTSIFARRFALSLALLRSPTSY,30900
18,TSIRKIRAGESGGGESGGGESSGGESSGGGERGRRRRGAKEVEVRARGGGKAT,43700
19,TSKAQESKTKEGDKEEKAATKREKDDSKEEDDDDDNETEEKQAGDKRKKTNGS,30800
20,TSLESAPVHVPMHCGIQGVVGSLGVLVSASVVQCVRASIARDSEGGMEWMRVE,33600
21,TSLRLVMFQITFLDLFFKAYGSNIARLDNNYGFPDKQLPERMVEEVKAIYKIN,56500

row,Sequence,transcriptional activation domain activity
1,TSLVVENGNGNGSGRGRKKRGRDGGGGGRGGGGGRGGGGEEDGLVGGAGAGGG,25000
2,TSLVYPIHSSDTGDTLSSGLETPENSNFNSDSGIKEDFEAFRALLPLGKLIYD,69500
3,TSPAPASSANGPAPPRRKRQATTAACRACRKRKSKCDGARPTCSVCRDRKTKC,13100
4,TSPKKKGRAAAKGKKGADKENAEAKTEVEKKASEDEFKDLEPNGDSKTNGAAA,< 6570
5,TSQCSISLYHYLIMYHMTLLGVATSVLALVLVCNPAEFLISSSVRLGFIWFCI,73700
6,TSRAPPSASPPTASHGAPTPPPPSPSSSPAPATPSSHPCPPTSSSSRPPSSPP,41800
7,TSSPQKGAEKEEAAEAEPEKEKEAEAEAPASPQKRITPMKRGRGRPKRGGAAV,27500
8,TSSPRRNSPPTRSTSSSPPSSPTSPYPSSSPPRPAPSPRPCARRGPKTPPSRP,30300
9,TSSPSAHSSTNTNVVFVFGSEDKRVKEVGDALKVKLAVKGGGKGVKWSGKFTG,25400
10,TSSPSAISSTSVNTLLVAGSEGTDAHVKTVGEQLKTRMGVKGGGKGTRWSGKM,57300
11,TSSPSAQTAASTTVVLVIGSDDKKVKEVGDELKTKLNVKGGGKGPRWSGKFTG,24700
12,TSSPSGQNASSTSVALVVGSDEKLVKAVGEGLKSKLGIKGGGKGPRWTGKWTG,33700
13,TSSSEESSNKGQRQLTVSIDSAAHHDNSTIPLDFMPRDALHGFDWSEEDDMSD,39300
14,TSSSTAAPAVKRDEKPVKEKKPPAPQAPLEPGAVPEKRKRGRPRKVVSPPVPV,49500
15,TSSTNHFYGTVVKTKDLLPIYLDVVLWMLKRDLLVTLHLRVRIVVPAELKERA,59600
16,TSTAPHRGFGFVEFEHPEDAKAAQDNMHLSELYGKTIKVNLARPLKGAGPGGR,57100
17,TSTGRFAFRQHRDHTTIHEGSWVSAGPGYDVGNRMWLLSRVVINAVVLELSSL,42400
18,TSTKKTTTTKKATSTKSATATSSCTKYTVKKGDTCSSIASKVGGTTAAKIISK,34000
19,TSTSGGSLFGGGSTAAPSTGSGGLFGNNSSTPATGAQPGTSLFGKPAGGATAG,14200
20,TSTTPAGAPPADKPAGSLFGVKPAAAGSSSGGLFGQASNTSVAPSSIATTTAS,28400
21,TSVLPIIAVHCAYKTPISDYILAFCYLLPYIYHSMGYLVRWLYLGLRVIFVAK,70400

row,Sequence,transcriptional activation domain activity
1,TSWKNEDQALVFHLRSRVSAAIMKLECHRDRRIDLLITFREAQRFLLELIGWV,59400
2,TTAATEPTKTEAAPPAPATEPAPAAEPAAPAAEPAKEEAKPATEVKPEAPAAA,24800
3,TTAETTAPAAETDAAAKVEEAKPAAATTEAKPAAAAPKPAADKKVKRSSTILQ,10600
4,TTGCREGFDWTPLSSVRYGGICGGRLFSICHTTFEGLAIIGMPNILICNYNVT,43300
5,TTGGLFGGGAANTGTTGGFGSGGGFGSSTTGGGGLFGNAGNQPKPAGLFGSST,27700
6,TTKPKEASKPKEDPKPRSKSPVKKEETKVEKPKEDPPKAEAKSIPATTAAAAV,59300
7,TTLTEKGSQVMEKNMDQLDSVHNLNDDDLQQLLEDLGNIDHSDEKLWKEITDQ,93200
8,TTLVNTTAPYFPYSFSALEGSTFNGFSFDQTMFDLFLEVWEQTDPLMNYLFDF,162000
9,TTLVTGTQLFFLLSFRDTMFAFSFLLFSPFVLFLWYGFFSSGALFISLICFLV,54700
10,TTTGTTTTGTTATPSSSPETKPNKIPISMQGYAYSGGGRAIARVDVSLDNGRT,37700
11,TTTLTGRPPSTFSGPETSNGPPTGSLPSKFVHDLMSNSPNVSSISMFPDWSMG,21600
12,TTTTAADDADTDSKKEKEKEQAAVKVKVKEKEKEKRVLVHCCMGRSRSGAVVV,20200
13,TTWLAHSKKKNCDVCKHPYSFTKVYATDMPTRLPPVLLLRRIAQQSFFAMVFA,44800
14,TVDSLLTFVPFFLLTLLFLLISLFLFILFFLIFFFLFIPFSSFLFIYFSLSFH,32200
15,TVEFLLPFLSFSLLGCLFIFYFIFFLCFLFFFSQTFCFFISSNCWCFVSNLLP,34700
16,TVGPVDNNYRDLEAYLETRYLRYCDPSKSLHLMATLMVRCAINILRFMARHPR,54100
17,TVGVLILWCWLRLIQKALEKLHVKQIKTGHYGSPPLKNMLLPWLKQTFIFVLA,69100
18,TVKEEEEEVKAKPAAAKVSRVRKAAAAKAQSEPEKDVAGPAPKTRAARTRAAS,48100
19,TVKNLYLFIIITTVNVVVLLICVAHFALVFMSRAGLSLHARQLTALMHAKFTH,49000
20,TVLLDVALNGNPKELIVFILEHVYSLENDLTVLQQSLLVLVICKVYNETYPKQ,67400
